Assay results: PMC3201810

Biological target: Bacillus cereus ChbC (EIIC component of the diacetylchitobiose phosphotransferase system) (Bacillus cereus)
Assay: SEC-MALS

Bacillus cereus ChbC (EIIC component of the diacetylchitobiose phosphotransferase system) (natural protein)
stoichiometry N: 2
